Laboratory results reported in PMC12379891.

Target: AeCRK^G359E (kinase-dead cysteine-rich receptor-like kinase of Aeschynomene evenia), mCherry-tagged and YFP-tagged copies (Aeschynomene evenia)
Test: co-IP

fold enrichment in the co-IP over the negative control MtLYK3-CFP [fold] | Substance
7.37 | AeCRK^G359E (kinase-dead cysteine-rich receptor-like kinase of Aeschynomene evenia), mCherry-tagged and YFP-tagged copies
2.9 | AeRLCK2-YFP (receptor-like cytoplasmic kinase 2 of Aeschynomene evenia) (natural protein)
